Tested on: K4 kissing-loop RNA reporter
Test: apparent KD of K4 kissing-loop reporter; higher = weaker reporter binding
Settings: Eterna round: R107
Experimental: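 RNA-MaP round R107: designed RNA switches with theophylline, tryptophan, arginine or FMN aptamers are transcribed on-chip within common flanks. They are titrated with a labelled K4 kissing-loop RNA reporter in RNA-MaP buffer (100 mM Tris pH 7.5, 80 mM KCl, 4 mM MgCl2), without ligand or with the indicated ligand. Median apparent KD per design.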

[1] = input ligand: theophylline 20 uM
[2] = input ligand: tryptophan 2.4 mM
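Further: bound reporter read as fluorescence of individual clusters on recovered sequencing chips by microscopy, with normalized cluster intensities fitted with a binding model.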

Row | Sequence | apparent KD of K4 kissing-loop reporter (input ligand: FMN 200 uM) [nM] | apparent KD of K4 kissing-loop reporter (input ligand: arginine 13.2 mM) [nM] | apparent KD of K4 kissing-loop reporter (input ligand: none) [nM] | apparent KD of K4 kissing-loop reporter [1] [nM] | apparent KD of K4 kissing-loop reporter [2] [nM]
1 | GGCAGUGAUGUUGCCAGUGGCAGAUGUGAAGGAGCGCGGUGAGACGCAGGUAGGUCGCACAUUGAAAUUGCUGUCACUAAAAUGC [#02 K4 Arginine A Exclusion] | 294 | 300 | 273 | 314 | 215
2 | GUGAUAUCGCAAGGAUAUCCAAUUUCUGCGGAUAAGUGAUGUUUGGCGCCGCCUCAGUUAUGGCAAGGAGAAGGUGCGGCCUAGC [theeternabot_sameState_KL_FMN_B_28] | 473 | 286 | 428 | 366 | 383
3 | ACCGCAUUGGGCUGAUCCCAAUGCGCUGGUCGAGGACCGGUACGGCCGCCACUCGUCCAGUGAUGUUGGACUAGGGCAACUGAAG [Veraceer] | 390 | 244 | 249 | 449 | 83.3
4 | AAUAAUCUAGGUGAUACCAGCUCAACAUGAGUGAUGUUCAUGAACUAAUGUAGAGUUGAGAGCCCUUGGCAGCACCUAGAUAAUA [KL-SSTheoB6] | 873 | 792 | 966 | 458 | 962
5 | GAAUAAUAAGUAGCAGUGAUGUUGCUACUACGAGGACCGGUACGGCCGCCACUCGAAUACGAGUGGACACUGCUACUACCACUCG [(H1)-(H2)-(Trp1)-(Trp2)-(T)'-(H)'-(T)''_Design8] | 121 | 118 | 121 | 122 | 170
6 | CAGCCCAAAUGGCGAGAAGUGUUCCUUAGUCGAGGACCGGUACGGCCGCCACUCGCUCUAAACAUUAGGAGUGAUGUUCCAUUAG | 168 | 258 | 215 | 335 | 90.6
7 | AAGCAGUCUCUUGUAACCAUCGAAGAUGGACGAGGACCGGUACGGCCGCCACUCGGAGUGAUGUUCCGAAGACUGCAAAAUAAAA [MatMod 15 - Jieux - Exclusion - Tryptophan A] | 713 | 712 | 828 | 1280 | 1350
8 | UAUAGAGUGACGGCCGCCACUAUUGUGAUUUAAUUGUUUGAGUGAUGUUUUGAUGUUUGAUUUUGUAGGACCGGGUUAUAUGUUA [zdzzmullin] | 959 | 718 | 987 | 793 | 788
9 | AUUAAUUUCAGAGGAUAUCGUUAUUUUUUUUAUUUUAUUCAUUUAUGCAGUGAUGUUGCUAUUAUUCGAGAAGGCUGAUUUAUAA [JR_ExcFMNB_Sub005] | 97.9 | 126 | 62.9 | 146 | 74.1
10 | UGAUACCAGACGGCCGCCACUACACCAGUCAAAGACUGGAUGUGAUGUCUGACCAGUGAUGUUGGUAGGACCGGGUCUGGUAUCU [TrypBX 6 #Palindromic #SwitchBubble #StaticStem] | 246 | 303 | 428 | 450 | 305
11 | GGGAGUAGUGCGGCCGCCACUGUGAAAGAAGAAGAAUAUAGUGAUGUUAUAUAGGAAAGGAAGAAUAGGACCGGGCAUUAGAUUU [SSTRyptB.K] | 213 | 226 | 260 | 235 | 183
12 | CGUUCAUCCUAGGCGUGAGUGAUGUUUACCCGAGGACCGGUACGGCCGCCACUCGUAUGGCGAGAGUUUAGCCAUUUCCAAUAUA [theeternabot_exclusion_KL_Trp_A_17] | 465 | 403 | 503 | 505 | 398
13 | UGUCAUUGGUCGGCCGCCACUGAAAUAAAAGAGUGAUGUUCUUAAAAGACGGACAAAGUCUGUCAUAGGACCGGGACCGAUGACU [TrypBS 24 #SwitchBubble #StaticStem] | 662 | 558 | 473 | 369 | 380
14 | UGGGCCGCCUGAGGAUAUAGAGACGAGUGAUGUUCGUGGAUCAGAGCCAGUGAUGUUGGGUUAUUUCUAGAAGGCGGGCGAACUU [Exclusion FMN B GF10] | 116 | 112 | 120 | 118 | 120
15 | ACAGGAUCGAAGAUCCUGAGCAGUCAAAACCGAGGACCGGUACGGCCGCCACUCGGAGUGAUGUUCCGAAGACUGCAAAAUAAAA [#SwitchBubble 3] | 1090 | 760 | 1010 | 1010 | 692
16 | GGUAGCAUGGCGGCCGCCACUACUGACAGCUGUCUGUUCUGGGUACCAGGGAGUGAUGUUCCCGGUAGGACCGGGCCAUGCUACC | 135 | 106 | 114 | 112 | 266

— the supplement of paper PMC9170038
